Holding throughout (test): ITC
Common to all, as to details: ITC: 10 mM HEPES, 150 mM NaCl, pH 7.5, 25 C, 100 uM DNA into 10 uM CsoR tetramer; EMSA: same buffer, room temperature, 30 min, 6% PAGE in TBE; SEC: same buffer
(In general: Mobility shift assays separate free from complexed probe on a gel.)

The target in series [1] is CsoRSl R132A (Streptomyces lividans 1326) (UniProt D6EK73).
The target in series [2] is CsoRSl R129A (Streptomyces lividans 1326) (UniProt D6EK73).
The target of series [3] is CsoRSl R54A (Streptomyces lividans 1326) (UniProt D6EK73).

In the case of “CGGACAAATACCCCTGGTGGGTATATATGG (double strand) [csoR-EXT]”, the values for the Kd in series [1], in series [2] and in series [3] were 309 nM, 134 nM and 2060 nM, respectively.

The values are drawn from publication PMC3902906.
